Measured values reported in US20240059759A1 (BIGHAT BIOSCIENCES, published 2024).
Changes are numbered by the printed parent chain. Numbers in names are those of the source.

B1: VHH-72(S57G) (VHH)
VHH: QVQLQESGGGLVQAGGSLRLSCAASGRTFSEYAMGWFRQAPGKEREFVATISWSGGGTYYTDSVKGRFTISRDNAKNTVYLQMNSLKPDDTAVYYCAAAGLGTVVSEWDYDYDYWGQGTQVTVSS
B2: VHH-72 (S57Y) (VHH)
VHH: B1 VHH with G57Y
B3: VHH-72 (S57A) (VHH)
VHH: B1 VHH with G57A

How the values were obtained:
SARS-CoV-1 RBD [1] = molecular target: T1, SARS-CoV-1 RBD (SARS-CoV-1, UniProt P59594 306-527)
SARS-CoV-1 RBD [2] = molecular target: T1, SARS-CoV-1 RBD; remark: listed apart in the source

Row | Binder | Rel. EC50 - ELISA (SARS-CoV-1 RBD [1]) | EC50 (SARS-CoV-1 RBD [2])
1 | B1 | 0.3 relative to WT | –
2 | B2 | – | > 10 µg/mL
3 | B3 | 0.43 relative to WT | –
